Data from IntAct's records for PubMed 21157427.

B1: Serine/arginine-rich splicing factor 2 (Homo sapiens), Q01130 (parent)
chain: MSYGRPPPDVEGMTSLKVDNLTYRTSPDTLRRVFEKYGRVGDVYIPRDRYTKESRGFAFVRFHDKRDAEDAMDAMDGAVLDGRELRVQMARYGRPPDSHHSRRGPPPRRYGGGGYGRRSRSPRRRRRSRSRSRSRSRSRSRSRYSRSKSRSRTRSRSRSTSKSRSARRSKSKSSSVSRSRSRSRSRSRSRSPPPVSKRESKSRSRSKSPPKSPEEEGAVSS

Variants of: B1
Settings: with kat5_human KAT5, Q92993
Sequence of kat5_human KAT5, Q92993 (Q92993 whole entry, looked up): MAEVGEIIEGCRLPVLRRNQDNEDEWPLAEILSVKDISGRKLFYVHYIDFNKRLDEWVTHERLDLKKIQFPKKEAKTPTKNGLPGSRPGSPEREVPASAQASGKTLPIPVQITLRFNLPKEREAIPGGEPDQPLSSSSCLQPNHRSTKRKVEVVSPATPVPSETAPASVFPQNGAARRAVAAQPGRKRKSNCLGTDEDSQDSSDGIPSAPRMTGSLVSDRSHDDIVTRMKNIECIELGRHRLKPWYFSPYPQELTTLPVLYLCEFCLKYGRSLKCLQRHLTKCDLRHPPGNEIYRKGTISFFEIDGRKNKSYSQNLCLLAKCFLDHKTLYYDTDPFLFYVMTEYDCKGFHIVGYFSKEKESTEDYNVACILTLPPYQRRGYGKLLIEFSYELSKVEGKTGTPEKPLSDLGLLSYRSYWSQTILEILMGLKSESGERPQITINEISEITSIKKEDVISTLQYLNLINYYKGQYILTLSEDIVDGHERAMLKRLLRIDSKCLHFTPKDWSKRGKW
For MSYGRPPPDVEGMTSLKVDNLTYRTSPDTLRRVFEKYGRVGDVYIPRDRYTRESRGFAFVRFHDKRDAEDAMDAMDGAVLDGRELRVQMARYGRPPDSHHSRRGPPPRRYGGGGYGRRSRSPRRRRRSRSRSRSRSRSRSRSRYSRSKSRSRTRSRSRSTSKSRSARRSKSKSSSVSRSRSRSRSRSRSRSPPPVSKRESKSRSRSKSPPKSPEEEGAVSS [K52R], the “effect of a mutation on the interaction” value was “disrupting interaction”.
